The values below come from publication PMC11633098.

The target of assay [1] is human plasminogen (human) (UniProt P00747). As to the kind of experiment: ELISA; solid-phase binding: Plg, Pln or BSA immobilised on 4HBX plates; increasing concentrations (1 nM to 4 µM) of recombinant protein; anti-His HRP detection; one-site specific binding fit; apparent KD.
The target of assay [2] is human plasmin (human).
Assay [3] deals with human plasmin (human). As to the kind of experiment: ELISA; inhibition assay: Plg or Pln coated at 0.5 µg/well; 100 nM rSesY with 0 to 10 mM tranexamic acid or arginine; anti-His HRP detection; RT, 1 h.
The target of assay [4] is human plasminogen (human) (UniProt P00747). The description is as above.
The target in assay [5] is human plasmin (human). This is another data set of the same source.
The target of assay [6] is human plasmin (human). As to the kind of experiment: ELISA; solid-phase binding: Plg, Pln or BSA immobilised on 4HBX plates; increasing concentrations (1 nM to 4 µM) of recombinant protein; anti-His HRP detection; one-site specific binding fit; apparent KD.

Sequence of UniProt P00747 (P00747 20-810): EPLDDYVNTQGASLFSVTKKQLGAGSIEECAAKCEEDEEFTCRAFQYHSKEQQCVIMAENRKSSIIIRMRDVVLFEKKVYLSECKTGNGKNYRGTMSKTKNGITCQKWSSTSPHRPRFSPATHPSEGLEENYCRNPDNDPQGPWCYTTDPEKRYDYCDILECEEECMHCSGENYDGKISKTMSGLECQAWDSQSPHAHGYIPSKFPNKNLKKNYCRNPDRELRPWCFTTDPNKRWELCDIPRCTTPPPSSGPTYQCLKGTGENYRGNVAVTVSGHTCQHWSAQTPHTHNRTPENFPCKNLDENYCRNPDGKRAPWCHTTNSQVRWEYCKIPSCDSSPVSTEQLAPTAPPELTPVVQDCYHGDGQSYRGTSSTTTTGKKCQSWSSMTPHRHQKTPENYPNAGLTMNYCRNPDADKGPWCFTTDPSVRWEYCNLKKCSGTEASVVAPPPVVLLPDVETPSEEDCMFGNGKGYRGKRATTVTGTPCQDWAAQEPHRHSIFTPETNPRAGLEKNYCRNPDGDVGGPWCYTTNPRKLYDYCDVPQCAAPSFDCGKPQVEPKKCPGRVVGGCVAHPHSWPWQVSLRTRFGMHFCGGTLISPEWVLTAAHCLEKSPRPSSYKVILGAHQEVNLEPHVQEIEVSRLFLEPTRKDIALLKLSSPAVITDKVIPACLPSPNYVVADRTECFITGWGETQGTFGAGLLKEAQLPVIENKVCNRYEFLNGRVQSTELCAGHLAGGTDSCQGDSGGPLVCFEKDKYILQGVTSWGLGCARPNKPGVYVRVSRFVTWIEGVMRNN

In the case of “recombinant fibronectin-binding protein B N2N3 domain from S. aureus (from UniProt A0A0H2XKG3 37-940) (domain or fragment)”, the Kd in assay [1] was 30 nM.

As to “recombinant SesY_(32–341) (S. epidermidis surface protein Y) (domain or fragment)”, in the assay with human plasmin (human) [2], the Vmax of Pln on S-2251 without and with rSesY (0 to 10 µM) was found to be 1.8 nM/min. The percent reduction of binding by 2 mM tranexamic acid (in the assay with human plasmin (human) [3]; in assay [4]) was more than 85% each time. The substance further came in with a fibrin gel remaining at 6 h and 12 h after digestion of pre-formed fibrin gel by Pln with 1, 2.5, 5 and 10 µM rSesY (38% to over 80%) in the assay with human plasmin (human) [5] of more than 80%. In the assay with human plasmin (human) [5], this substance registered a fibrin gel remaining at 12 h after digestion of pre-formed fibrin gel by Pln with 5 µM rSesY (controls 10%–25%) of 80%. Moreover, the Kd with human plasmin (human) [6] was 16 nM; in assay [1], 210 nM.
